Laboratory results: the supplement of paper PMC12042874
± gives the uncertainty stated by the source.

Assay: amyloid nucleation score (Sup35N fusion, yeast selection) (log enrichment); library NNK1; higher = more nucleation; inactive = no reads after selection
Summary of the method: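 Psi-negative yeast expressed Sup35N fused to peptides of 20 random codons. They were induced 24 hours with 100 μM copper sulfate, grown 7 days at 30°C without adenine and uracil, and their plasmid inserts from input and output were Illumina-sequenced. The nucleation score is the DiMSum log enrichment of output over input reads, centred on the mode score of non-aggregating sequences. Sequences with under 100 input reads were excluded.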

Row | Substance | amyloid nucleation score
1 | TLKAVHTLTTD | 2.4 ± 0.23
2 | TLLNDIFLLCCDSTSNDLMC | 1.56 ± 0.43
3 | TLLWGTLSAGHS | inactive
4 | TLNQHY | 0.025 ± 0.55
5 | TLSLFLRKGSRTLRCVCPRG | -0.112 ± 0.33
6 | TLSLTNYELSKQSWMVLC | -0.236 ± 0.64
7 | TLTYPMCGSIG | 1.09 ± 0.47
8 | TLVGKVLADDSRGFINCR | 0.924 ± 0.97
9 | TMCEYSHFLLRAMNNLMENV | -1.57 ± 2.7
10 | TMGSLMFWF | -0.356 ± 0.95
11 | TMHVMVGGYL | 1.38 ± 0.41
12 | TMLMESTIRRRC | -0.021 ± 0.54
13 | TMLTWASRRLDYFSGALCFM | -0.119 ± 0.45
14 | TMVCKGSCFWSSWSITFPLQ | inactive
15 | TMVGTMVSMF | -0.539 ± 0.45
16 | TMVVNLARRAPPVLPSGRMT | 0.71 ± 0.74
17 | TNDKCHSITVFSYREVDWTW | 0.445 ± 0.29
18 | TNKGFQYSGLVYCCWVRYLF | inactive
19 | TNLMSFY | -0.721 ± 1.1
20 | TNMRTWFSGSFTILKCTDFQ | 0.744 ± 0.74
21 | TPAASIRLTRLPEGLIFI | 0.47 ± 0.95
22 | TPCNVLGNSGPVWSWNP | 0.166 ± 0.81
23 | TPLNTLYRLPMGNWLG | 0.06 ± 0.26
24 | TPNMCGWLVLTSM | -0.448 ± 0.62
25 | TPSLLVAVRILAAVMPSWET | -0.746 ± 0.43

Row | Substance | amyloid nucleation score
26 | TQVSVFQ | -1.3 ± 0.83
27 | TRCASC | 0.3 ± 0.65
28 | TRCYFNSLMCTDTNSCIAGV | -0.135 ± 0.26
29 | TRFLLLSLRDGSEQV | 0.577 ± 0.73
30 | TRFLNDIVMSIDSSIIDPTC | 0.809 ± 0.7
31 | TRIMVDFLLDWHCRMVKLVN | 0.33 ± 0.44
32 | TRLCFGFWAKIEWMRSVSGV | 0.082 ± 0.64
33 | TRLKFGGSKHESSQT | 1.18 ± 0.43
34 | TRLSMLIYALTGNVMSGSCV | 0.505 ± 0.46
35 | TRMCLRAKSMWVVDSN | 0.068 ± 0.48
36 | TRMITWRPFRSSWVFTNLYE | 2.04 ± 0.19
37 | TRMRLPP | -0.299 ± 0.48
38 | TRMRSSKSSVA | 0.532 ± 0.42
39 | TRQWGHFSLYGESYFSCI | 0.187 ± 0.63
40 | TRRHKYFEWD | -0.285 ± 0.8
41 | TRSMALL | -0.098 ± 0.71
42 | TRVYIYRTGIWFYLTSNSFT | 0.577 ± 0.43
43 | TRYPLNISEVFRFDFPNRIP | -1.32 ± 2.4
44 | TRYSTSISGC | 0.332 ± 0.69
45 | TRYTKKWQVLTDWSVGYTGT | -0.443 ± 0.41
46 | TRYVNMIFPPLVCWGDEILW | 0.873 ± 0.77
47 | TSFFADYVHTIKLLAPLSVG | inactive
48 | TSGHNVIPRGTVSSVVRILY | -0.498 ± 0.36
49 | TSINGYSVAKSGGSMYCIGM | -0.194 ± 0.67
50 | TSIRRRLVRFFFNILPVVGL | 1.67 ± 0.17

Row | Substance | amyloid nucleation score
51 | TSPYAFKRWFSLGLYDLSRF | inactive
52 | TSRVH | 0.228 ± 1.2
53 | TSRYVFRT | 0.925 ± 0.58
54 | TSSMCVFVSGNSEFVLWALE | 0.286 ± 0.51
55 | TSSPKRFLIMKVNCIIILDL | -0.721 ± 0.68
56 | TSTSC | 0.223 ± 0.51
57 | TSVNMVIYILLVNFMKFLVG | 1.37 ± 0.45
58 | TSVSARFFFCRKISRMHRSS | -0.885 ± 1.1
59 | TSVSNMFENPKNLSLVPTVG | 1.94 ± 0.5
60 | TSYIQW | -0.359 ± 0.29
61 | TSYQA | -0.115 ± 0.22
62 | TTASVSSEI | -0.441 ± 1.2
63 | TTEHAK | -0.263 ± 0.2
64 | TTFFFDF | 2.59 ± 0.18
65 | TTGSALTETATDQVGWNYSL | 0.265 ± 0.41
66 | TTKSLSVSLGGHYYVTRVRR | 0.81 ± 0.83
67 | TTLVKPDEIVFVSINECWCW | 0.021 ± 0.59
68 | TTPFLHKENLNSIMK | 0.396 ± 0.26
69 | TTQDCNLRD | -0.021 ± 0.34
70 | TTSCNGLFERAKNSTNSPDI | -2.25 ± 2.4
71 | TTSFRHSVYQDYGLSVIDCG | -0.351 ± 0.78
72 | TTSPGSNSRDPAGMMIT | 0.38 ± 0.32
73 | TTTKLGPMLLGRNSVYCV | 2.31 ± 0.25
74 | TTTRVFS | 0.813 ± 0.81
75 | TVAFWF | inactive

Row | Substance | amyloid nucleation score
76 | TVANT | 0.888 ± 1.1
77 | TVFRTSFLWHGMGRGLVR | 1.03 ± 0.59
78 | TVGSLRAW | 1.15 ± 0.62
79 | TVLKVSTEYFFLMKESGVVC | 0.593 ± 0.26
80 | TVNCFDYSVSGVSSNRV | 0.882 ± 0.66
81 | TVRKDGNTRSFFSSLRMQAS | -0.654 ± 0.3
82 | TVRVVDLGQVVGSGVMASMP | 1.23 ± 0.17
83 | TVSKNMYR | -0.259 ± 0.5
84 | TVTAVY | inactive
85 | TVVWFTLIFLSLESSCINSL | 1.22 ± 0.2
86 | TVYLSNCERIYMQWVREFVS | 2.68 ± 0.14
87 | TVYSMPKVTKTYGGFPAKSH | 0.312 ± 0.34
88 | TWDSPVPG | 0.208 ± 0.29
89 | TWKLATCIWRSLF | -0.238 ± 0.21
90 | TWLTRYLPLNEFRMG | 0.776 ± 0.36
91 | TWSSKIEDSSAYYDG | 1.65 ± 0.36
92 | TWSTGAMPML | -0.344 ± 0.84
93 | TWYILMTRGILGTAATHIRL | -0.234 ± 0.91
94 | TYDLPTYIILVSPQYLCANT | -0.06 ± 0.27
95 | TYGGYR | -0.343 ± 0.93
96 | TYLAVGLMHYEWRGDSVSTD | -0.603 ± 0.32
97 | TYLRKIKKRFPGSRYPSLMG | 0.15 ± 0.46
98 | TYLRMCGSSTR | -0.14 ± 0.3
99 | TYLVILR | 0.33 ± 0.39
100 | TYLYNYILASSLSHRALYNA | 1.62 ± 0.73

Row | Substance | amyloid nucleation score
101 | TYNVLSTLWRFCVIVLRICC | 0.558 ± 1.1
102 | TYRCGHLLGFVY | inactive
103 | TYRTLAARRWQLAYALWVLL | -0.474 ± 0.6
104 | TYWFMSRC | 0.254 ± 0.88
105 | TYWYSVRNVAQLCPVEGYQS | -0.102 ± 0.7
106 | TYYSGDSAYLPIDAIMLVWY | -1.07 ± 0.65
107 | TYYTVTEISHVGWTYFGYVR | -0.151 ± 0.64
108 | VAAACFFNRCWEHTYVMIVK | 3.1 ± 0.17
109 | VAEVKRFCELLLK | -0.29 ± 1.7
110 | VAGGDHAAHWKLAVKNPPPS | 0.1 ± 0.56
111 | VAISDDDVLVWMYFS | 0.154 ± 0.44
112 | VALID | -0.215 ± 1.7
113 | VAPQGNPMWSKDLL | 1.8 ± 0.18
114 | VARSHYMCI | 0.132 ± 0.38
115 | VASRFVCWCRGQAQWVSQCN | 0.434 ± 0.45
116 | VAVLGNFL | inactive
117 | VCFWSGEGNLGAWDGHELSM | 0.693 ± 0.46
118 | VCIFCFRGGMVKRPTLDMVY | 0.564 ± 0.19
119 | VCKWSVMNHFVVITYHYVMA | 0.671 ± 0.3
120 | VCLSSLIRMCKYSFPDGTGH | 6.813 ± 0.051
121 | VCMISAQYYLDIMMGRCNVI | 0.468 ± 0.36
122 | VCMWRFLVGRT | -0.238 ± 0.9
123 | VCPVHSNKGLQFLSMRHYSS | 0.511 ± 0.87
124 | VCRKRCERQLKPL | 0.241 ± 0.24
125 | VCTYGFGC | inactive

Row | Substance | amyloid nucleation score
126 | VCVLSGRK | -0.416 ± 0.38
127 | VCVNSENHNFT | inactive
128 | VCVSIGWFCCSGCCLAQRLW | 7.2 ± 0.065
129 | VDFLSTNFWSLSVPVAFLGV | -0.31 ± 0.54
130 | VDHTSMWCGFLYTSCLGPDF | -0.758 ± 1.2
131 | VDLGRSKWCLTMYESYENGR | -0.127 ± 0.3
132 | VDPGDVVFLLRPRSEHWGVG | 2.12 ± 0.18
133 | VDSDLGLSERMTVKSTFAFC | 0.39 ± 0.56
134 | VDSHVYRNT | -0.203 ± 1.1
135 | VDVSNLKCLQE | 0.335 ± 0.42
136 | VDYFFMGAGFEL | 4.53 ± 0.077
137 | VECAYSVTFSKMNRNTDFRV | 0.265 ± 0.35
138 | VEGRRFDINAWRDWTKGVR | -0.238 ± 0.3
139 | VEIYGCTSPDQWSVANSCTA | 0.047 ± 0.36
140 | VESTCTNMRCYLGWFIPPF | 0.387 ± 0.2
141 | VEVYFSFLNLIFSGMSVLVE | 0.129 ± 0.28
142 | VFASVRLSCMEGGTLVG | 0.241 ± 0.33
143 | VFCVRYLRANISCEGHDGWY | 2.28 ± 0.14
144 | VFGIRFLI | -1.54 ± 2.7
145 | VFGKITSWWFRTIDFWERRI | -0.428 ± 0.64
146 | VFILALVELFGVQWLVVYNW | -0.42 ± 0.47
147 | VFKCVNFS | inactive
148 | VFKFKTM | 1.24 ± 0.81
149 | VFLIEQPMERCK | 0.199 ± 0.22
150 | VFLKCFRYTFNNHINFFCVG | 5.96 ± 0.064

Row | Substance | amyloid nucleation score
151 | VFLKHAPRGI | -0.077 ± 1.7
152 | VFLSCHQSLRVFVACYWHWY | 0.672 ± 0.33
153 | VFLVIVRYWCFFYHPVDTAN | inactive
154 | VFMSIRMWAFDLLYVSCGLA | -0.808 ± 0.42
155 | VFNARVSYSFNSMCWVRKKQ | -2.08 ± 2.7
156 | VFNMTYRKIRVTE | inactive
157 | VFNRFCYSSFCLTYRDYDSQ | 8.198 ± 0.07
158 | VFNTSRLFRSLYPK | 0.573 ± 0.82
159 | VFPDASSMRVRGGIDTAQEL | 0.037 ± 0.46
160 | VFPFPLGFDFKNHERKSVV | -1.24 ± 0.58
161 | VFQLIVTTFLSCVGFHKVMW | -0.658 ± 0.6
162 | VFTGLLLL | -0.034 ± 0.36
163 | VFVSIMWQY | 1.82 ± 0.51
164 | VFVSKNWGTCRHGRDSCC | 0.507 ± 0.26
165 | VFVSWHKVCTNQRSLRQVHL | 1.56 ± 0.48
166 | VFWTYVGERKKSLVCRNLGA | -0.189 ± 0.71
167 | VFYACSTPRPSQNASVDFRL | -0.035 ± 0.61
168 | VGDCSSVFCVTSFDWVSFYV | 2.89 ± 0.098
169 | VGDKQFHTKYMVA | 0.031 ± 1.1
170 | VGDWFSLVENWVVWSFSLIC | -1.89 ± 2.1
171 | VGDYFFGDDSIGGSRMHVSY | 1.15 ± 0.65
172 | VGESHCLNADLVSYQHN | -0.374 ± 0.6
173 | VGIPGGWIQNITFSSMKDFF | 4.9 ± 0.065
174 | VGLMAVLRVGRKGLPLKNME | -0.082 ± 0.31
175 | VGNRSFNIFGTMCKMLQWTE | -0.715 ± 1.1
